Laboratory results taken from patent publication US20250179210A1 (Merck KGaA, published 2025).

What was measured:
[1] = target: T1, BSA (bovine serum albumin) (bovine, UniProt P02769 25-607); assay: ELISA
T1 construct: Negative control; also called unrelated protein

[2] = target: T2, huCEACAM6-His6 (3934-CM R&D Systems and recombinant protein obtained from Syngene) (human, UniProt P40199 35-320); assay: ELISA, protein coated at 12 nM
T2 construct: Two sources of the protein are named; the result is told once; also called human CEACAM6
T2 sequence (looked up): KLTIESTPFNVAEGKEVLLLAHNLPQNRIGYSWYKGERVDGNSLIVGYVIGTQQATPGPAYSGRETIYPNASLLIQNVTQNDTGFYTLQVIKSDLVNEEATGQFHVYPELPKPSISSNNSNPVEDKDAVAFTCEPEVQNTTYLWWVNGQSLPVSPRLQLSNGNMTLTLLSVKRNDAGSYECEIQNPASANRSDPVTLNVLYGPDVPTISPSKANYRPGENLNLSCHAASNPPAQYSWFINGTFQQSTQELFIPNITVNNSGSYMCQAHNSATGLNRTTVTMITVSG

[3] = target: T3, huCEACAM1-His6 (2244-CM R&D Systems) (human, UniProt P13688 35-428); assay: ELISA, protein coated at 12 nM
T3 construct: also called human CEACAM1
T3 sequence (looked up): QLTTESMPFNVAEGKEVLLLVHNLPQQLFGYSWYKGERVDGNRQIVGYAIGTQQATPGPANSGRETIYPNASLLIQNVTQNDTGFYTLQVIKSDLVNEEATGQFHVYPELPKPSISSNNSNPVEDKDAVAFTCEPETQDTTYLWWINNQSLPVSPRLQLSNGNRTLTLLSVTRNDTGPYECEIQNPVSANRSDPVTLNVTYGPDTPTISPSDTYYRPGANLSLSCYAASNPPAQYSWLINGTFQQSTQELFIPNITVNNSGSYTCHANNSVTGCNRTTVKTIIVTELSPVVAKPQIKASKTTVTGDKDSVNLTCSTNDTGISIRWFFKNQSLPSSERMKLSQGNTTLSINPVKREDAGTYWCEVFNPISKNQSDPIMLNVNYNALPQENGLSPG

[4] = target: T4, huCEACAM3-His6 (C449 Novoprotein) (human, UniProt P40198 35-155, limits assumed); assay: ELISA, protein coated at 12 nM
T4 construct: also called human CEACAM3
T4 sequence (looked up): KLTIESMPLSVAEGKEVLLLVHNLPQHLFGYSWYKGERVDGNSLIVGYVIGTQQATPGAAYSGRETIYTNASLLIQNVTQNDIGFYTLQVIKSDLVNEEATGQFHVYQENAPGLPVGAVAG

[5] = target: T5, huCEACAM7-His6 (C926 Novoprotein) (human, UniProt Q14002 36-242, limits assumed); assay: ELISA, protein coated at 12 nM
T5 construct: also called human CEACAM7
T5 sequence (looked up): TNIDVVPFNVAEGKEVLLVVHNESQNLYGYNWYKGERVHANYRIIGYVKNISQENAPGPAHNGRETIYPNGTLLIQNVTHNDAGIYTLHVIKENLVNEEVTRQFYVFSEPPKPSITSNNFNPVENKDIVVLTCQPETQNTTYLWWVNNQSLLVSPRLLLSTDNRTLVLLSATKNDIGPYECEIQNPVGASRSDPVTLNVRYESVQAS

[6] = target: T6, huCEACAM8-His6 (C583 Novoprotein) (human, UniProt P31997 35-320, limits assumed); assay: ELISA, protein coated at 12 nM
T6 construct: also called human CEACAM8
T6 sequence (looked up): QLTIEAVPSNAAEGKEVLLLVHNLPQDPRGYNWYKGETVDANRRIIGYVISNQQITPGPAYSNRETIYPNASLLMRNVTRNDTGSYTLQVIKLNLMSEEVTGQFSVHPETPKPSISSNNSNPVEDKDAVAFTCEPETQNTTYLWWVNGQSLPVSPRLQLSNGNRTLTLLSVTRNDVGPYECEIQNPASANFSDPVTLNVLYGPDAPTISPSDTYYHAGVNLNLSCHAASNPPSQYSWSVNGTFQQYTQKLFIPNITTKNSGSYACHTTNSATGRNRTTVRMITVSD

[7] = target: T7, huPSG1-His6 (CC66 Novoprotein) (human, UniProt P11464 35-419, limits assumed); assay: ELISA, protein coated at 12 nM
T7 construct: also called human PSG1

[8] = target: T8, huCEACAM5-His6 (R&D Systems #4128-CM) (human, UniProt P06731 35-685); assay: ELISA, protein coated at 12 nM; Fab, not IgG
T8 construct: Bought protein; also called human CEACAM5; not shown: His6 tag
T8 sequence: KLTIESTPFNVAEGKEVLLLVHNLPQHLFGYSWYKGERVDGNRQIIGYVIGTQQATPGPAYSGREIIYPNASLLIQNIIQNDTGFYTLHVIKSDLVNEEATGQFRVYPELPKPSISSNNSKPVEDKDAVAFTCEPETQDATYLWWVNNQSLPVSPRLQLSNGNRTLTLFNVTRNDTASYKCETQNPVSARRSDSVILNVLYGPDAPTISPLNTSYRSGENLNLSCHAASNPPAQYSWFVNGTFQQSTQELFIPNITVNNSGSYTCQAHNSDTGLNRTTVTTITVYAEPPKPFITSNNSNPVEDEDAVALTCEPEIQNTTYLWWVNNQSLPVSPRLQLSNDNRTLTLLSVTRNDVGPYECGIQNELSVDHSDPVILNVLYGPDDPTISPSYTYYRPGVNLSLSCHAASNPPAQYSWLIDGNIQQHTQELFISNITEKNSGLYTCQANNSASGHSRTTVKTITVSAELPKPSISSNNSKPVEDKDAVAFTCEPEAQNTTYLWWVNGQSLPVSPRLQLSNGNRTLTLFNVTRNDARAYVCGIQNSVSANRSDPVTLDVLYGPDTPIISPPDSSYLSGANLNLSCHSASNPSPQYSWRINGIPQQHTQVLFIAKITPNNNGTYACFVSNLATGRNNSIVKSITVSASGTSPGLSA

[9] = target: T9, human_CEACAM5_ECD-his-biotin (R&D Systems) (human, UniProt P06731 35-685, biotinylated using routine methods (sites not given)); assay: BLI (Octet Red), biotinylated antigen captured on streptavidin biosensor, Fab as analyte 6.25-200 nM
T9 construct: Bought protein; not shown: His tag and any linker
T9 sequence: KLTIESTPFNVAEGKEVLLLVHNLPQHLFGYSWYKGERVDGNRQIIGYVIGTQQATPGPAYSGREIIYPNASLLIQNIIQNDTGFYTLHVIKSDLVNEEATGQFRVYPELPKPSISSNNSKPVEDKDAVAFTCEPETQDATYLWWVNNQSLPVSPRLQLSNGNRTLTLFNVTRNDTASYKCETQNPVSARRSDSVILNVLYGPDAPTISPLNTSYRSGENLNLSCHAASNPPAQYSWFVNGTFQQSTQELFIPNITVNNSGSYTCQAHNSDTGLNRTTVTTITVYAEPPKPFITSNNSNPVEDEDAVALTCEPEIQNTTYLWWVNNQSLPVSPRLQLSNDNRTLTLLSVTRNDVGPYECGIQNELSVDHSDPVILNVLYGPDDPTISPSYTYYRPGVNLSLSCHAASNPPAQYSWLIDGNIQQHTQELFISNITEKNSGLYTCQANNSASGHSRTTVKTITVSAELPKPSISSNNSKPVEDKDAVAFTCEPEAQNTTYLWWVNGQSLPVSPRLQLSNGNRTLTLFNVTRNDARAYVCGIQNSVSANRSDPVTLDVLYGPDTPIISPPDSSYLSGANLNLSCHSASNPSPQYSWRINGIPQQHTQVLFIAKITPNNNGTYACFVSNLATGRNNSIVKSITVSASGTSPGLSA

T1 sequence (P02769 25-607 limits assumed): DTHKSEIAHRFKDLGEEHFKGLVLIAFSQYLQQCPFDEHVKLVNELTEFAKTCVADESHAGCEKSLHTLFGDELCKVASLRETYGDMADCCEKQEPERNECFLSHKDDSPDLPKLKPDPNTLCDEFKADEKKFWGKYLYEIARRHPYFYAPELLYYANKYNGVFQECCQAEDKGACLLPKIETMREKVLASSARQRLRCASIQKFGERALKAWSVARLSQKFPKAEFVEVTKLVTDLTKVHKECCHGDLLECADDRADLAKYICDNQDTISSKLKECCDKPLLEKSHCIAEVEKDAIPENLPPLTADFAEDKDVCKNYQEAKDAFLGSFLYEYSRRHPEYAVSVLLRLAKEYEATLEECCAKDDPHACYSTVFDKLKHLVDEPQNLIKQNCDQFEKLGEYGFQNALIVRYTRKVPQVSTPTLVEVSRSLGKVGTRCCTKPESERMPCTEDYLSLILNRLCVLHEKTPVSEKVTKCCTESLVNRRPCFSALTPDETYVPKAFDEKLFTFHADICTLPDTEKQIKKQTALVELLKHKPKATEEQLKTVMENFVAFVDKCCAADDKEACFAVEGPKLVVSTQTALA
T7 sequence (P11464 35-419 limits assumed): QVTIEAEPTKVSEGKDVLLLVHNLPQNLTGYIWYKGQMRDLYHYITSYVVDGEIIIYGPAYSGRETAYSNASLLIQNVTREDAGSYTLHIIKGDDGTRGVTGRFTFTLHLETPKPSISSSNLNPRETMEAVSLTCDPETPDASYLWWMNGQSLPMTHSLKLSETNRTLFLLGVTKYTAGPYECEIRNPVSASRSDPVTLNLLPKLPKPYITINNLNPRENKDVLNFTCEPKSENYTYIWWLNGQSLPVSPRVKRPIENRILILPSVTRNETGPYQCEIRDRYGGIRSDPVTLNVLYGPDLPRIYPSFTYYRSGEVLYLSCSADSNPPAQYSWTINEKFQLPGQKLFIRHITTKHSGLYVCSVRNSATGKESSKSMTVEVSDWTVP

binding result [2]: no binding (tested: 1000 nM)
binding result [3]: no binding (tested: 1000 nM)
binding result [4]: no binding (tested: 1000 nM)
binding result [5]: no binding (tested: 1000 nM)
binding result [6]: no binding (tested: 1000 nM)
binding result [7]: no binding (tested: 1000 nM)
EC50 [8]: 3.04 nM
Kd [9]: 6.3 nM
B1: Fab of mAb1 (Fab, V domains shown)
VH: EVQLQESGPGLVKPSQTLSLTCTVSDGSVSRGGYYLTWIRQHPGKGLEWIGYIYYSGSTYFNPSLRSRVTMSVDTSKNQFSLKLSSVTAADTAVYYCARGIAVAPFDYWGQGTLVTVSS
VL: EIVLTQSPATLSVSPGERATLSCRTSQSVRSNLAWYQQKPGQAPRLLIYAASTRATGIPARFSGSGSGTEFTLTISSLQSEDFAVYYCQQYTNWPFTFGPGTKVDIK
notes: Fab format of mAb1; also called Fab generated from mAb1
binding result [1]: no binding (tested: all concentrations tested)
